In patent US20240000914A1 one finds 50% geometric mean neutralizing reciprocal titer (50% GMT) (50% GMT (reciprocal titer)) and neutralization of AAV2-nLuc transduction (reciprocal dilution) data, which are given here for one substance.

The test concerns the target adeno-associated virus 2 (AAV2) vector capsid (AAV2-nLuc) (adeno-associated virus 2) (UniProt P03135). The experiment in a line: cell-based or functional assay.
Chain of UniProt P03135 (P03135 whole entry, the tested form may be a part): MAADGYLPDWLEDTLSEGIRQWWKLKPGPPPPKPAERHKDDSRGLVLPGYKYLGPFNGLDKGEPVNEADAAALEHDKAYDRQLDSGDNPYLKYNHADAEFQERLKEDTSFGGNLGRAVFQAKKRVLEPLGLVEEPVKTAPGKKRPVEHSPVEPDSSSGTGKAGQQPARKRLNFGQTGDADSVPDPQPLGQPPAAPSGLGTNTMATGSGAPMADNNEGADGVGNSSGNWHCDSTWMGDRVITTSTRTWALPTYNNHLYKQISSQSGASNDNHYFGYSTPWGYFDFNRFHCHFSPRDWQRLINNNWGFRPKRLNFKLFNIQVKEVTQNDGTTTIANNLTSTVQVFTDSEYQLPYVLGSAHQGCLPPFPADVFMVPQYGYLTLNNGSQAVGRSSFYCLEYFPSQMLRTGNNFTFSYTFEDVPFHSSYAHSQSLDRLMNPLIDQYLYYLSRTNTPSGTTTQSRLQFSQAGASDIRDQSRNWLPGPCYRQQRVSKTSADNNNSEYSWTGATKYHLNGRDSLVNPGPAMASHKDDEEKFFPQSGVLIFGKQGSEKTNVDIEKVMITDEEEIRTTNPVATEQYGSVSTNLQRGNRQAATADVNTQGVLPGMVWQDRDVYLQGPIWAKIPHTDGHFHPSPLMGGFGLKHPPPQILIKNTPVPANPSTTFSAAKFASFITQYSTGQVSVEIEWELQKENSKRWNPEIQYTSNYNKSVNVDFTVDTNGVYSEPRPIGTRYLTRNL

In turn, “human intravenous immunoglobulin (IVIG) (antibody)” displayed a 50% geometric mean neutralizing reciprocal titer (50% GMT) (50% GMT (reciprocal titer)) of 1280 and a neutralization of AAV2-nLuc transduction (reciprocal dilution) of 1250.
